Assay results reported in the nanobody polyreactivity screen of Harvey et al. (2022).

Assay: yeast display, Sf9 membrane polyspecificity reagent, FACS + sequencing; frameworks hold sequencing errors
Method in brief: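 Sorting gates, low and high (top ~1%), were placed on anti-HA fluorescence to track expression and on streptavidin fluorescence to track reagent binding. A clone's polyreactivity label is taken from the gate it came out of. The reagent was 10% biotinylated, detergent-solubilized Sf9 membrane, applied for 1 hour at 4 °C to galactose-induced yeast display cells.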

Row | Sequence | polyreactivity (PSR sort gate)
1 | QLQLVESGGGLVQAGGSLRLSCAASGGTFYSYEMGWYRQATVKEREFVAAITYGGGSTYYADSVKGRFTMSRDNAKNTDYLQMNSLKPEDTAVYYCYARRYGSRLGERYYYWGQGTQVTVSS | high polyreactivity
2 | QLQLVESGGGLVQAGGSLRLSCAASGITFVHNAMGWYRQAPGKEREFVAAITSSGVSTYYADSVKVRFTISRDNAKNTVYLQMNSLKPEDTAVYYCAARLSTRHWFYYWGQGTQVTVSS | high polyreactivity
3 | QLQLVESGGGLVQAGGSLRLSCAASGLIFYDNMAWSRPAPAKEMELVAAISSSGGSTSYADSVKGRFSISRDNAKNTVYLQLISLKPEDTAVYYCAADSYPAYLGFVGFDYWGQGTQVTVSS | low polyreactivity
4 | QLQLVESGGGLVQAGGSLRLSCAASGLTFVDYAMGWYRQAPGKERELVAAITSSGGSITYYADSVKGRFTISRDNAKNTVYLQLNSLKPEDTAVYYCNADYGIYTDSFRGPDYESWGQGTQVTVSS | low polyreactivity
5 | QLQLVESGGGLVQAGGSLRLSCAASGRIFKEYAMGWYRQAPGQERELVAAISWRGGSTYYADSVKGRFTISRDNAKNTVNLQMNSLKPEDTAVYYCARVVSRNTHPYYHWGQVTQVTVSS | low polyreactivity
6 | QLQLVESGGGLVQAGGSLRLSCAASGRIFKLNAMGWSRQAPGKERELVAAINSGTRTYYADSVKGRFTISRDNAKNTVYLQMNSLKPEDTAVYYCAAEGVWWYSRYDYWGQGTQVTVSS | high polyreactivity
7 | QLQLVESGGGLVQAGGSLRLSCAASGRIFTYNALGWYRQAPGKERELVARIRRSGGTYYADSVKGRFTISRDNAKNTVYLQMNSLKPEDTAVYYCAVDLYIYYREYDYWGQGTQVTVSS | high polyreactivity
8 | QLQLVESGGGLVQAGGSLRLSCAASGRIFVANTMGWYRQAPGKERELVAAISRGSTYYADSVKGRFTISRDNAKNTVYLQMKSLKPEDTAVYYCAVKLAYGYYYWGLGTQVTVSS | high polyreactivity
9 | QLQLVESGGGLVQAGGSLRLSCAASGRIFVYYAMGWYRQAPGKERELVASISYSGASTYYADSVKGRFTISRDNAKNTVYFQMNSLKPEDTAVYYCNTDGDDFFHVIYDYWGQGTQVTVSS | low polyreactivity
10 | QLQLVESGGGLVQAGGSLRLSCAASGRNFVHNAMGWYRPAPGKEREFVAAISLRGGSTYYADSVKGRFTTSRDNAKNSVYLQMNSLKPEDTAVYYCAAVPAHFYGYDYWGQGTQVTVSS | low polyreactivity
11 | QLQLVESGGGLVQAGGSLRLSCAASGRTFFRYVMGWYRQAPGKERELVAAISTRGGSTYYADSVKGRFTISRDNAKNTVYLQMNSLKPEDTAVYYCAARFKVRDYSYNYWGQGTQVTVSS | high polyreactivity
12 | QLQLVESGGGLVQAGGSLRLSCAASGRTFQPYAMGWYRQAPGKERELVAAITSIGGSTFYADSVKGRFTISRDNAKNTVYLQMNSLKPEDTAVYYCAADPYTLYWYYWYGTSGFDYWGQGTQVTVSS | low polyreactivity
13 | QLQLVESGGGLVQAGGSLRLSCAASGRTFVRYAMGWYRQAPGKERELVAGISRSTGGTYYADSVKGRFTISRDNAKNTVYLQMNSLKPEDTAVYYCAAVYHKNGSGDYSWGQGTQVTVSS | high polyreactivity
14 | QLQLVESGGGLVQAGGSLRLSCAASGRTFWYYAMGWYRQAPGKESELVAGISRGGSTNYADSVKGRFTISRDNAKNTVYLQMKSLKPADTAVYYCIVGRWYSQGTTGVFKGGYWGQGTQVTVSS | low polyreactivity
15 | QLQLVESGGGLVQAGGSLRLSCAASGSIFQYNAMGLYRQAPGKRELVAALNRSGGSTYYGDSVKGRFTISRDNAKNTVDLQMNSLKPEDTAVYYCAAGVFYFLKYTVSFINYYWRQGTQVTVSS | high polyreactivity
16 | QLQLVESGGGLVQAGGSLRLSCAASGSIFRVYAMGWYRQARGKERELVAAISSSGVRTSYADSVKGRFTISRDNAKNTVYLQMNSLKPEDTAVYYCADRYPYGYYHWGQGTQVTVSS | high polyreactivity
17 | QLQLVESGGGLVQAGGSLRLSCAASGSIFSFYAMGGYRQAPGKERELVATITYGSGSTHYADSVKGRFTISRDNAKNTVYLQLNSLKPEDSAVYYCAGETVRYEWGDSPAALFDYWGQGTQVTVSS | low polyreactivity
18 | QLQLVESGGGLVQAGGSLRLSCAASGSIFYQYVMGWYRQAPGKEREFVAAIRYTGVGTYYADSVKGRFTLSRDNAKYTVYLQMNSLKPEDTAVYYCAARSYNRRARYDYWGQGTQVNVSS | high polyreactivity
19 | QLQLVESGGGLVQAGGSLRLSCAASGSIIGYYAMGWYRQAHGKERELVAAITASGGSTYYADSVKGRFTISRDNAKNTVYLQMNILKPEDTAVYYCAAGTHTDYGRYYYWGQGTQVTVSS | low polyreactivity
20 | QLQLVESGGGLVQAGGSLRLSCAASGSTFALYAMGWYRQAPGKERELVAAITSDGSTKYADSVKGRFTISRDNAKNTVYLQMNSLKPEDTAVYYCNTEYYYPGIPYDYWGQGTQVTVSS | high polyreactivity
21 | QLQLVESGGGLVQAGGSLRLSCAASGSTFHLYAMGCYREAPWNEREFVAAIRGRGGNTYADSVKGRFTISRDNAKNTVYLPMNSLKPEDTAVYYCAAAFYYYGDSDNWGQGTQVTVSS | low polyreactivity
22 | QLQLVESGGGLVQAGGSLRLSCAASGSTFSPYAMGWYRQAPGKERDLVAGITSSGGDTYYADSVKGRFTISRDNAKNTVYLQMNSLKPEDSAVYYCAADWWVLGQLWFDYWGQGTQVTVSS | low polyreactivity

Row | Sequence | polyreactivity (PSR sort gate)
23 | QLQLVESGGGLVQAGGSLRLSCAASGSTFSPYAMGWYRQAPGKERELVAAISASGGGTYYADSVKWRLTISRDNAKNTVYLQMNSLKPEDTAVYYCARDYGWDISKGRYGYWGQGTQVTVSS | low polyreactivity
24 | QLQLVESGGGLVQAGGSLRLSCAASGSTFVVYARGWYRQAPGKERELVAAITRDDGRTYYADSVKGRFTISRDNAKNTVYLQMNSLKPEDTAVYYCAAGYSFGYGYWGQGTQVTVSS | low polyreactivity
25 | QLQLVESGGGLVQAGGSLRLSCAASGSTFWRYAMGWYRQAPGKERELVAAISWNGGSTYYADSVKGRFTISRDNAKNTVYLQMNSLKPEDTAVYYCAADYWFRYGTYEYWGQGTQGTVSS | high polyreactivity
26 | QLQLVESGGGLVQAGGSLRLSCAASGYIFEFYAMGWYSQARGKERELVDAIRWNGGTYYADSVKGRFTISRDNAKNTVYLQMNSLKPEDTAVYDCSASRYYRYKIGYVSRAMDYWGQGTQVTVSS | high polyreactivity
27 | QLQLVESGGGLVQAGGSLRLSCAGSGGTFRVYAMGWYRQATGKERALVAAITGRGGSTYYADSVKGRFTISRDTAKNTVYLQMNSLKAEDTAVYYCAAVSFSDGSPYNYWGLGTQVTVSS | low polyreactivity
28 | QLQLVESGGGLVQAGGSLRLSCAYYGFIFYWNAMGWYRHAPGKESQFVATITWSGGSTYYADSVTGRFTISRDNAKNTVYLQMNSLKPEDTAVYSCAVSYLSTLGRSRSDYWGQGTQVTVSS | low polyreactivity
29 | QLQLVESGGGLVQAGGSLRLSSAASGITLYQYAMGWYRQSPGKERELVAAISSSGGSTYYADSVKGRFTISRDNAKNTVYLQMNSLKPEETAVYYCAAADRFWYGYYQYDYWGQGTQVTVSS | high polyreactivity
30 | QLQLVESGGGLVQAGGSLSLTFAASGIISNYNAMGWYIQAPGKERELVSAISRSGTRKYYADSVKGRYTISRDNAKNTVYLQMNSLKPEDTAVYDCAAPSWSSKGYCKGYYWGQGTQVTVSS | high polyreactivity
31 | QLQLVESGGGLVQAGRRLRLTCAASGSIFQGNVMGWYRQAPGKERELVAAITWSGGRTYYADSVKGRFTISRDHAKNTVYLQMNSMNPDDTAVYYCNAVIGRELDYWGQGTKVTVSS | high polyreactivity
32 | QLQLVESGGGLVQARGSLRLSCAASGYIFGSYAMGWDRQAPGKERELVAANSKSGGSTYYADSVKGRFTISRDYAKNTVYLQMNSLKPEDTAVYYCAAAGIGGGGWGQGTQVTVSS | low polyreactivity
33 | QLQLVESGGGVVQAGGSLRLSCAATGRIDWNTMGWYRQAPGKERELVASISTGGGRTYYADSVKGRFTISRDNAKNTVYLQMISLKPEDTAVFYCNAVRTVWYRYEYGYWGQGTQVTVSS | high polyreactivity
34 | QLQLVESGGRLVQAAVSLRLSFAASGRTFYPYAMGWYRPAPGKERELVAAITSRGASTYYADSVKGRFTISRDNAKNTVYLQMNSLKPEDTAVYYCNSGRTYRRLGDYLGQGTQVTVSS | high polyreactivity
35 | QLQLVESGGVLVQAGGSLRLSCAASGSTFRYNAMGWYRQAPGKERELVASITWSGGDTYYADSVKGRFTISRDNAKNTVYLQMNSLKPEDTAVYYCAKKGYASRYFIYDYWGQGTQVTVSS | low polyreactivity
36 | QLQLVESRRGLVHAGGSLRLSSDASGRIFLYYAMGWYRQAPVKERELVARITSSGSTYYADSVKGLFTISRDNAKNTVYLQMNSLKPEDTAVYYCAADWYWGGIVDSWGQGTQVTVSS | high polyreactivity
37 | QLQLVESVGGLVQAGGSLRLSCAASGGIFNVNALGWYRQAPGKERELVAAISLSGSNTYYADSVKGRFTISRDNAKNTVYLQMNSLKPEDTAVYYCNADYVYRRYGYWGQGTQVTVSS | high polyreactivity
38 | QLQLVETGGGLVQAGGSLRLSCAASGSIIAKNAKGWYSQAPGTDRELVAAISKSGGITYYADSVKGRFSISRDNAKNTVYLQINSLKPEDTAVYYCNALSAGYIGVASRYYYWGQGTQVTVSS | high polyreactivity
39 | QLQLVQSGGGLVQAGGSLRLSCASSGRTFTPNARGWYSQAPGKEREMVAAISWRGGSTYYADAVMGRFTISRVNGKYTVYLEMKSLKPEDTGVYYCKKRSDKSYTRTEYDNWRQGTQVTVSS | high polyreactivity
40 | QVEHVDSGGGLVQAGGSLRLSCAASGRTIWDYMGWYRQAPGKEREVVATITSSGGSTYYADSVKGRFTISRDNAKNTVYLQMNSLKPEDTAVYYCNADWYLWSTFAQGYGYWGQGTQVTVSS | high polyreactivity
41 | QVEHVESGGGLVQAGGSLRLSCAASGGTFSHNDMGWYRQAPGKERELVPSINSGGSTNYADSVKGRFTISRDNAKNTVDLQMNSLKPEDNAVYYCAADVEGWTVESDVYRVGYDYWGQCTQVTVSS | low polyreactivity
42 | QVEHVESGGGLVQAGGSLRLSCAASGSIIVDNAMGWSRQAPGKDRELVAAISVGGGRTYYADSVKGRFTISRDNAKNTVYLQMNSLKPEDTAVYYCNRVPTRGPHGVWFGYCGQGTQVTVSS | high polyreactivity
43 | QVELEESGGGLVQAGGSLRLSCAASGFIFRYYALGWYRPGPGTVRELVAVISSSGSTHYADSVKGRITISRDNAKNTVYLQMNSLKPEDTAVYYCAADGNVWSGPRYDYWGQGTQLTVSS | low polyreactivity
